The values that follow come from publication PMC3575409, “Identification of a Novel Protein-Protein Interaction Motif Mediating Interaction of GPCR-Associated Sorting Proteins with G Protein-Coupled Receptors” (PLoS ONE, 2013).

Where only a bound is given, the exact number is not on record here.

The target of one assay is free GST. The experiment in a line: pull-down; GST-fused receptor C-tails immobilized on glutathione-Sepharose beads, incubated with [35S]-labelled in vitro translated GASPs 1 h at 4°C; 20 mM Tris-HCl pH 7.4, 150 mM NaCl, 1 mM EDTA, 1 mM DTT, 10% glycerol, 1% Triton X-100; Phosphor-imager quantification.
The target of assay [1] is T1, GST-fused C-tail of the calcitonin receptor (residues 407–490).
T1 sequence (P30988 whole entry, species assumed, looked up): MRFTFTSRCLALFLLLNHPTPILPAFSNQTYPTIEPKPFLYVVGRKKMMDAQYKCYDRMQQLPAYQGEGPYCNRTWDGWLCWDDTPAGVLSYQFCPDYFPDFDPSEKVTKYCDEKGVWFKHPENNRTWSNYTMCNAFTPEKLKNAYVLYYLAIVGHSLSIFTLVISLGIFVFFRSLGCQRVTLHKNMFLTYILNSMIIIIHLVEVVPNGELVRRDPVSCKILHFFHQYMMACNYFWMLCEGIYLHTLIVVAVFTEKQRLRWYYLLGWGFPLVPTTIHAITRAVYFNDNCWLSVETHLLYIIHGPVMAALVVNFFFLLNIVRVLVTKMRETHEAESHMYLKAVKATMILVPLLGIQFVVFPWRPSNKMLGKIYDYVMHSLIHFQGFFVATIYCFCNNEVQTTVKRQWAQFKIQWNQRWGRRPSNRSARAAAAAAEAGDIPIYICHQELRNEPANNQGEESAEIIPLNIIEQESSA
The assay is described as above.

Assay [2] addresses GST-fused C-tail of the histamine 2 receptor (residues 284–349). The assay is described as above.
For assay [3], the target named is GST-fused C-tail of the type III transforming growth factor β receptor (residues 805–849). The description is as above.
Assay [4] deals with GST-fused C-tail of the insulin growth factor I receptor (residues 1268–1367). The assay is described as above.
Assay [5] deals with GST-fused C-tail of the muscarinic M1 acetylcholine receptor (residues 414–460). Described as above.
For assay [6], the target named is GST-fused C-tail of the β1 adrenergic receptor (residues 373–477). Described as above.
The target in assay [7] is GST-fused C-tail of the δ-opioid receptor (residues 314–372). Described as above.
Assay [8] addresses GST-fused C-tail of the α isoform of the thromboxane A2 receptor (residues 304–343). The assay is described as above.
Assay [9] addresses all three receptor C-tails (ADRB1, M1 and CALCR). The assay is described as above.
Assay [10] addresses GST-fused C-tail of the β1 adrenergic receptor (residues 373–477). The experiment in a line: pull-down; data not shown; GST-ADRB1 C-tail with GASP-1 fragment 924–1395.
Assay [11] deals with the four receptor C-tails (ADRB1, M1, CALCR and TXA2). The experiment in a line: pull-down; competition: synthetic peptide (1 to 250 µM, or 150 µM) against [35S]-labelled GASPs for GST-fused C-tails; the peptide and the C-tail.
Assay [12] concerns the target GST-fused C-tail of the β1 adrenergic receptor (residues 373–477). The description is as above.

Chain of GST-fused C-tail of the insulin growth factor I receptor (residues 1268–1367) (P08069 1268-1367): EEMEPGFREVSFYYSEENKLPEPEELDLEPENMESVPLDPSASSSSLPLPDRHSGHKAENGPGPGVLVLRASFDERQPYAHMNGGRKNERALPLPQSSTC
Chain of GST-fused C-tail of the histamine 2 receptor (residues 284–349) (P25021 284-349): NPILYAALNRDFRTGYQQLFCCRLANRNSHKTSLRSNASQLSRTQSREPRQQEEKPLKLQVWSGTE
Chain of GST-fused C-tail of the type III transforming growth factor β receptor (residues 805–849) (Q03167 805-849): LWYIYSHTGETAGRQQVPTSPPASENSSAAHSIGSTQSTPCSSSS

B1: GASP-6 (natural protein)
chain: MGYARKVGWVTAGLVIGAGACYCIYRLTRGRKQNKEKMAEGGSGDVDDAGDCSGARYNDWSDDDDDSNESKSIVWYPPWARIGTEAGTRARARARARATRARRAVQKRASPNSDDTVLSPQELQKVLCLVEMSEKPYILEAALIALGNNAAYAFNRDIIRDLGGLPIVAKILNTRDPIVKEKALIVLNNLSVNAENQRRLKVYMNQVCDDTITSRLNSSVQLAGLRLLTNMTVTNEYQHMLANSISDFFRLFSAGNEETKLQVLKLLLNLAENPAMTRELLRAQVPSSLGSLFNKKENKEVILKLLVIFENINDNFKWEENEPTQNQFGEGSLFFFLKEFQVCADKVLGIESHHDFLVKVKVGKFMAKLAEHMFPKSQE
modifications: [35S]-methionine labelled
Consider B1, for which the percent of GASP input retained (% of GASP input) in the assay with free GST was below 1; in [1], 2; in [2] it was 2; in assay [3] it was below 1; in [4], below 1; in assay [5], 2. Also, the percent of GASP input retained (% of GASP input) in [6], in assay [7] and in assay [8] was 2 in each case.

B2: GASP-1 truncated mutant 1025–1395 (conserved C-terminal domain) (domain or fragment)
chain: ICRSTCSVEQEPDPSRRPQSWEEVTVQFKPGPWGRVGFPSISPFRFPKEAASLFCEMFGGKPRNMVLSPEGEDQESLLQPDQPSPEFPFQYDPSYRSVQEIREHLRAKESTEPESSSCNCIQCELKIGSEEFEELLLLMEKIRDPFIHEISKIAMGMRSASQFTRDFIRDSGVVSLIETLLNYPSSRVRTSFLENMIRMAPPYPNLNIIQTYICKVCEETLAYSVDSPEQLSGIRMIRHLTTTTDYHTLVANYMSGFLSLLATGNAKTRFHVLKMLLNLSENLFMTKELLSAEAVSEFIGLFNREETNDNIQIVLAIFENIGNNIKKETVFSDDDFNIEPLISAFHKVEKFAKELQGKTDNQNDPEGDQEN
modifications: [35S]-methionine labelled
For B2, in [7], the percent of the full-length GASP-1 interaction (% of the full-length GASP-1 interaction) worked out at 25.

B3: GASP-1 truncated mutant 380–1073 (central domain), in vitro translated (domain or fragment)
chain: MTKEEAKTKARARAKQEARSEEEALIGTWFWATDESSMADEASIESSLQVEDESIIGSWFWTEEEASMGTGASSKSRPRTDGERIGDSLFGAREKTSMKTGAEATSESILAADDEQVIIGSWFWAGEEVNQEAEEETIFGSWFWVIDAASVESGVGVSCESRTRSEEEEVIGPWFWSGEQVDIEAGIGEEARPGAEEETIFGSWFWAENQTYMDCRAETSCDTMQGAEEEEPIIGSWFWTRVEACVEGDVNSKSSLEDKEEAMIPCFGAKEEVSMKHGTGVRCRFMAGAEETNNKSCFWAEKEPCMYPAGGGSWKSRPEEEEDIVNSWFWSRKYTKPEAIIGSWLWATEESNIDGTGEKAKLLTEEETIINSWFWKEDEAISEATDREESRPEAEEGDIIGSWFWAGEEDRLEPAAETREEDRLAAEKEGIVGSWFGAREETIRREAGSCSKSSPKAEEEEVIIGSWFWEEEASPEAVAGVGFESKPGTEEEEITVGSWFWPEEEASIQAGSQAVEEMESETEEETIFGSWFWDGKEVSEEAGPCCVSKPEDDEEMIVESWFWSRDKAIKETGTVATCESKPENEEGAIVGSWFEAEDEVDNRTDNGSNCGSRTLADEDEAIVGSWFWAGDEAHFESNPSPVFRAICRSTCSVEQEPDPSRRPQSWEEVTVQFKPGPWGRVGFPSISPFRFPKE
modifications: [35S]-methionine labelled
Regarding B3, the figures for the percent of the full-length GASP-1 interaction (% of the full-length GASP-1 interaction) in assay [5], in assay [6] and in assay [7] were 70, 70 and 30, respectively.

B4: GASP-2 truncated mutant 377–838 (domain or fragment)
chain: QEPRFEEEVIIGSWFWAEKEASLEGGASAICESEPGTEEGAIGGSAYWAEEKSSLGAVAREEAKPESEEEAIFGSWFWDRDEACFDLNPCPVYKVSDRFRDAAEELNASSRPQTWDEVTVEFKPGLFHGVGFRSTSPFGIPEEASEMLEAKPKNLELSPEGEEQESLLQPDQPSPEFTFQYDPSYRSVREIREHLRARESAESESWSCSCIQCELKIGSEEFEEFLLLMDKIRDPFIHEISKIAMGMRSASQFTRDFIRDSGVVSLIETLLNYPSSRVRTSFLENMIHMAPPYPNLNMIETFICQVCEETLAHSVDSLEQLTGIRMLRHLTMTIDYHTLIANYMSGFLSLLTTANARTKFHVLKMLLNLSENPAVAKKLFSAKALSIFVGLFNIEETNDNIQIVIKMFQNISNIIKSGKMSLIDDDFSLEPLISAFREFEELAKQLQAQIDNQNDPEVGQQS
modifications: [35S]-methionine labelled
With B4, in [9], the percent of the full-length GASP-2 interaction (% of the full-length GASP-2 interaction) is 30 to 60.

B5: GASP-1 fragment corresponding to amino acids 924 to 1395 (domain or fragment)
chain: CCVSKPEDDEEMIVESWFWSRDKAIKETGTVATCESKPENEEGAIVGSWFEAEDEVDNRTDNGSNCGSRTLADEDEAIVGSWFWAGDEAHFESNPSPVFRAICRSTCSVEQEPDPSRRPQSWEEVTVQFKPGPWGRVGFPSISPFRFPKEAASLFCEMFGGKPRNMVLSPEGEDQESLLQPDQPSPEFPFQYDPSYRSVQEIREHLRAKESTEPESSSCNCIQCELKIGSEEFEELLLLMEKIRDPFIHEISKIAMGMRSASQFTRDFIRDSGVVSLIETLLNYPSSRVRTSFLENMIRMAPPYPNLNIIQTYICKVCEETLAYSVDSPEQLSGIRMIRHLTTTTDYHTLVANYMSGFLSLLATGNAKTRFHVLKMLLNLSENLFMTKELLSAEAVSEFIGLFNREETNDNIQIVLAIFENIGNNIKKETVFSDDDFNIEPLISAFHKVEKFAKELQGKTDNQNDPEGDQEN
modifications: [35S]-methionine labelled
In the case of B5, the percent of input retained (% of the input) in assay [10] came to 5.
With RVKQEPRFEEEVIIGSWFWAEKEA [GASP peptide], the percent of GASP-1, -2 and -7 retained with 150 µM GASP peptide, of the control without peptide in [11] was 6 to 35 % of control. In assay [12], the percent inhibition of GASP-2 binding at 100 µM peptide came out at 65% and the percent inhibition of GASP-2 binding at 250 µM peptide turned out to be 76%.
